Source: patent publication US20230265167A1, “COMPOSITIONS HAVING NEUROREGENERATIVE APPLICATIONS” (GRIFOLS WORLDWIDE OPERATIONS LIMITED, priority 2020, published 2023)

System: SH-SY5Y cells
Assay: Neurite outgrowth (differentiation) in SH-SY5Y cells, Tubulin Tracker imaging
Type: cell-based, human
Procedure: Transferrin is utilized in cell culture and in-vivo to deliver iron as a nutrient to cells. This is typically accomplished through the actions of holo-transferrin (HoloTf) binding to, and endocytosis by, its cognate receptor CD71, the transferrin receptor 1 (TfR1). Transferrin is typically believed to provide cells with iron as a means to promote and sustain metabolic activity. […] Induction of neuronal differentiation was assessed by morphological parameters of neurite formation (a key element typically used as a marker of neuronal differentiation, neuronal health, and function) according to the procedures of Agholme, 2010. J. of Alzheimer's Disease. Vol. 20:1p 069-108; and Dyberg et al., 2017. PNAS Vol 114 (32), E6603-E6612.
Undifferentiated SH-SY5Y cells were seeded into 96 well clear bottom plates in media containing 0.1% FBS. A serum-free base media was utilized as recommended by the supplier for SH-SY5Y cells (Sigma, Cat #94030304-1VL). Twenty-four hours after seeding cells, a 3× stock solution of ApoTf, final concentrations indicated on the x-axis, in serum free base media was added to the cells. ApoTf was obtained and purified from pooled human plasma and dosed at a final concentration of 0.2 mg/mL.
Cells were allowed to differentiate for 6 days. Neurite growth was assessed by imaging and image analysis. […]
After obtaining images, the MetaExpress Neurite Outgrowth analysis module (Molecular Devices) was used to identify cells, cell bodies, and quantify neurites. […] The Outgrowth Fold Change was determined by setting the untreated control cells to a value of 1 with all other treatments shown relative to untreated control.
Undifferentiated SH-SY5Y cells were seeded and treated as described in Example 1. Neurite growth was assessed by imaging and image analysis. […] After obtaining images, the MetaExpress Neurite Outgrowth analysis module (Molecular Devices) was used to identify cell bodies and quantify neurites. […] The Outgrowth Fold Change was determined by setting the untreated control to a value of 1 with all other treatments shown relative to untreated control. […]

B1: N-mut rec ApoTf: Y95F/Y188F Transferrin N-lobe mutant protein, SEQ ID 4, reduced iron-binding capacity (protein)
chain: VPDKTVRWCAVSEHEATKCQSFRDHMKSVIPSDGPSVACVKKASYLDCIRAIAANEADAVTLDAGLVYDAYLAPNNLKPVVAEFYGSKEDPQTFFYAVAVVKKDSGFQMNQLRGKKSCHTGLGRSAGWNIPIGLLYCDLPEPRKPLEKAVANFFSGSCAPCADGTDFPQLCQLCPGCGCSTLNQYFGFSGAFKCLKDGAGDVAFVKHSTIFENLANKADRDQYELLCLDNTRKPVDEYKDCHLAQVPSHTVVARSMGGKEDLIWELLNQAQEHFGKDKSKEFQLFSSPHGKDLLFKDSAHGFLKVPPRMDAKMYLGYEYVTAIRNLREGTCPEAPTDECKPVKWCALSHHERLKCDEWSVNSVGKIECVSAETTEDCIAKIMNGEADAMSLDGGFVYIAGKCGLVPVLAENYNKSDNCEDTPEAGYFAVAVVKKSASDLTWDNLKGKKSCHTAVGRTAGWNIPMGLLYNKINHCRFDEFFSEGCAPGSKKDSSLCKLCMGSGLNLCEPNNKEGYYGYTGAFRCLVEKGDVAFVKHQTVPQNTGGKNPDPWAKNLNEKDYELLCLDGTRKPVEEYANCHLARAPNHAVVTRKDKEACVHKILRQQQHLFGSNVTDCSGNFCLFRSETKDLLFRDDTVCLAKLHDRNTYEKYLGEEYVKAVGNLRKCSTSSLLEACTFRRP
modifications: Y95F/Y188F mutant
FIG. 3B, proteins at 0.2 mg/mL
  neurogenesis (neurite outgrowth) of SH-SY5Y: almost equal to that of ApoTf and rec ApoTf at inducing differentiation

B2: apo-lactoferrin: structural and functional homologue of apo-transferrin, obtained from Athens Research & Technology (protein, UniProt P02788 20-710, looked up)
Lactotransferrin: GRRRSVQWCAVSQPEATKCFQWQRNMRKVRGPPVSCIKRDSPIQCIQAIAENRADAVTLDGGFIYEAGLAPYKLRPVAAEVYGTERQPRTHYYAVAVVKKGGSFQLNELQGLKSCHTGLRRTAGWNVPIGTLRPFLNWTGPPEPIEAAVARFFSASCVPGADKGQFPNLCRLCAGTGENKCAFSSQEPYFSYSGAFKCLRDGAGDVAFIRESTVFEDLSDEAERDEYELLCPDNTRKPVDKFKDCHLARVPSHAVVARSVNGKEDAIWNLLRQAQEKFGKDKSPKFQLFGSPSGQKDLLFKDSAIGFSRVPPRIDSGLYLGSGYFTAIQNLRKSEEEVAARRARVVWCAVGEQELRKCNQWSGLSEGSVTCSSASTTEDCIALVLKGEADAMSLDGGYVYTAGKCGLVPVLAENYKSQQSSDPDPNCVDRPVEGYLAVAVVRRSDTSLTWNSVKGKKSCHTAVDRTAGWNIPMGLLFNQTGSCKFDEYFSQSCAPGSDPRSNLCALCIGDEQGENKCVPNSNERYYGYTGAFRCLAENAGDVAFVKDVTVLQNTDGNNNEAWAKDLKLADFALLCLDGKRKPVTEARSCHLAMAPNHAVVSRMDKVERLKQVLLHQQAKFGRNGSDCPDKFCLFQSETKNLLFNDNTECLARLHGKTTYEKYLGPQYVAGITNLKKCSTSPLLEACEFLRK
modifications: iron-free apo form
notes: structural and functional homologue of apo-transferrin, obtained from Athens Research & Technology
FIG. 4, proteins at 0.2 mg/mL
  neurogenesis / differentiation of SH-SY5Y: induced differentiation

B3: BDNF: brain-derived neurotrophic factor; NGF superfamily; SEQ ID NO: 6 (protein, listed as Homo sapiens)
chain: MFHQVRRVMTILFLTMVISYFGCMKAAPMKEANIRGQGGLAYPGVRTHGTLESVNGPKAGSRGLTSLADTFEHVIEELLDEDQKVRPNEENNKDADLYTSRVMLSSQVPLEPPLLFLLEEYKNYLDAANMSMRVRRHSDPARRGELSVCDSISEWVTAADKKTAVDMSGGTVTVLEKVPVSKGQLKQYFYETKCNPMGYTKEGCRGIDKRHWNSQCRTTQSYVRALTMDSKKRIGWRFIRIDTSCVCTLTIKRGR
FIGS. 7A-7D, BDNF 25 ng/mL, GDNF 1000 ng/mL, CNTF 250 ng/mL, PACAP 200 nM
  differentiation of SH-SY5Y, factor alone: differentiation was not induced
